# Assay results: IntAct's records for PubMed 19013276
# B1: Cell cycle serine/threonine-protein kinase CDC5/MSD2 (Saccharomyces cerevisiae), P32562 (parent)
# chain: MSLGPLKAINDKQLNTRSKLVHTPIKGNTADLVGKENHFKQTKRLDPNNDHHHQPAQKKKREKLSALCKTPPSLIKTRGKDYHRGHFLGEGGFARCFQIKDDSGEIFAAKTVAKASIKSEKTRKKLLSEIQIHKSMSHPNIVQFIDCFEDDSNVYILLEICPNGSLMELLKRRKVLTEPEVRFFTTQICGAIKYMHSRRVIHRDLKLGNIFFDSNYNLKIGDFGLAAVLANESERKYTICGTPNYIAPEVLMGKHSGHSFEVDIWSLGVMLYALLIGKPPFQARDVNTIYERIKCRDFSFPRDKPISDEGKILIRDILSLDPIERPSLTEIMDYVWFRGTFPPSIPSTVMSEAPNFEDIPEEQSLVNFKDCMEKSLLLESMSSDKIQRQKRDYISSIKSSIDKLEEYHQNRPFLPHSLSPGGTKQKYKEVVDIEAQRRLNDLAREARIRRAQQAVLRKELIATSTNVIKSEISLRILASECHLTLNGIVEAEAQYKMGGLPKSRLPKIKHPMIVTKWVDYSNKHGFSYQLSTEDIGVLFNNGTTVLRLADAEEFWYISYDDREGWVASHYLLSEKPRELSRHLEVVDFFAKYMKANLSRVSTFGREEYHKDDVFLRRYTRYKPFVMFELSDGTFQFNFKDHHKMAISDGGKLVTYISPSHESTTYPLVEVLKYGEIPGYPESNFREKLTLIKEGLKQKSTIVTVD
# partner: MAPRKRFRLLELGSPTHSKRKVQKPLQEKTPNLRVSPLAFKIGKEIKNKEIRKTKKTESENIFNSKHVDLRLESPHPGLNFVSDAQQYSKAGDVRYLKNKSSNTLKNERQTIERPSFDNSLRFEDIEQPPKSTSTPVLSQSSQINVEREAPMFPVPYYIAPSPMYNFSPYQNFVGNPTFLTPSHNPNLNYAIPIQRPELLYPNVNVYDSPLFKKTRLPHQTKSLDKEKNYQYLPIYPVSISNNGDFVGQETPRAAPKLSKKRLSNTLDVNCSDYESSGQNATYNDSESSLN
# Variants of: B1
# Details: with spo13_yeast SPO13, P23624
row,Variant,effect of a mutation on the interaction
1,W517A;V518A;L530A,decreasing interaction

# Variants of: B1
# Details: with spo13_yeast SPO13, P23624
# Remark: another data set of the same source
row,Variant,effect of a mutation on the interaction
1,W517A;V518A;L530A,decreasing interaction
